Measurements taken from the domain aggregation screens of Martell et al. (2025).

Assay: soluble fraction after stress (log2 fold change); higher = more stays soluble; pooled small domains, quantitative proteomics
Conditions: stress: 75 degC
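Note: 20 min heating vs room temperature control held 20 min.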

Row | Sequence | soluble fraction (log2)
1 | HMLPGLGPIERAQFMLQAIPGISPTRSAALIDKFGSIAGIAQASIKDIQTIEGIGKKTATTLYEVLNAG | -0.39
2 | HMLPISGDDRDALDMAALILKQYDSLPILKEFANVVTKLQTVLDGVVSNSIEARRQMIQFEE | 0.0649
3 | HMLPITPGQKYKFVVKSAEEAAAIIRDKLGEMAQVISVRQVEGEGLARFLKSPKLEIIAQVPVA | -0.35
4 | HMLPLGSNEYETAVIKHLASGVQDADEIQRLTGIDQTSLNTALTMLELAGTIRPLGNNHWTL | 0.459
5 | HMLPLHFIEIVSLKKIDTLTKRKELINYAFSKNEKTYIYKLAFKKKSELDNLYKEINLFNEIINIDIRHS | -0.577
6 | HMLPLPRFASLDSSEANLRAGPGKDYPILWVYQRKGLPVEIIQEFDTWRRIRDRDGTVGWVQQNLL | -0.351
7 | HMLPNIKSEMEILGDNAKARLEAAELWSKKYLSNEAYDTMSKLATTADGVKAIEEIMNITKS | 0.0754
8 | HMLPSELLAQQRIVVQPGHNLWRIARATYGRGARYTVIYQANREQIADPNRIFPGQVFALPAA | -0.102
9 | HMLPSMENWLGELSFWQTPWWERRDFSTFDNIAQSKEELDEFMSRDDNGAILERMQDPINTIEAE | -0.285
10 | HMLQGKVSFFNDEKGYGFIKDNNSKDSYFVHINKVEGEIAEGDKVTFELEKGPKGLVAANVKR | 0.0967
11 | HMLQIGDEEFIENIVKQVIDENQKAVDDYKKGKEKVMAFLIGQVMKKTKGKVNSEIVEKTIKKL | -0.211
12 | HMLQKEVHQQIQQALRALPYHQRTAIVLYYYEGMSVKEIAQATGSMQGTVQSRLFFARKKLRPILESILKK | -1.15
13 | HMLQQNRAVEAEQLARKGLSYAQSNIQQAALWRLVAEATEQQGKVDAALNAKNKAMQLEMAG | 0.248
14 | HMLRTLSTSEFAEAIGISESSARRLADSGDLRIRRTKGGHRKIPAEEAIRYAREIQATVVRPDLLGLST | -0.0139
15 | HMLRVVSTRQAFDIVRGWADAHPQDPEHNKTLDELEELAKKEVWDDWSRTNEIAERLNALLVSIGANVRTA | -0.961
16 | HMLSDEEKMAALNEQARQRGFTISPGVLPYLITHYQRDMHSLSMILDALDRYSLQTKRTITLPLLHDLLQQ | -1.04
17 | HMLSKEFRFFTYLLESYAQHKNTTAGAVLKTLDEKGLTDFVYKMYDLYHVEAIENAYMDLDSLIATGKPA | -3.64
18 | HMLSKGDRVSWDTPQGRTQGEVVEKKTKDFEHDGQKFTASDDDPAFIVKSEKSGAEAAHKGSALNK | -0.000228
19 | HMLSLGIMEADMLKTGKHTISGISKATPEQRQKIDSDIEELKKKYPEKNITSKVENDNLIVESGVTAP | 0.029
20 | HMLSNKIEQLRKEKGYTFAKLSELSGISTGRLSDLATGKRNNPTMDTLIKLADALDVTLDELVGR | -0.26
21 | HMLSNYIGMTLGEAKRNLGQGVNITVNGPNNDNAEVTGQDPTSGSSFDKSKDTITLTT | 0.148
22 | HMLSPAQSLLLRTAARRPDGRVIPPDTLRGGARVKVLTSLLQRGWIEPVDGGHVLTDAGYAAIG | -0.819
23 | HMLSTNDYNENKNKLIKDFEIKFIIKHLKLNKGNVAATARSINFHPVSLRQKIAKLGIDVDEVMAG | -2.59
24 | HMLSTQEYIKKNIENGSWKVGEKIPSENNLTEILGVSRASIRVAIQQFIALDVLNSIHGKGTFVKTNNIMG | 0.112
25 | HMLTALTDREEEILVLLAHNLSNKEIAKRLNLSVNTVRNHTSHIYEKLNVTSRRKAITLAQSLHLLPP | -1.48
26 | HMLTAPMPGIVRQVNVDTGQKVRKGQPLMVLEAMKMEHQIIAPQAGKIEAIHYNEGDRVEMGSVLISIF | -1.17
27 | HMLTAPMPGIVTEILVKEGQRVRSGQPLMILEAMKMEHQVTAPKSGQIEKIYFSEGEKVDMGSDLLSIS | 0.5
28 | HMLTEEVEISLMDMTKPTQPATIKTTATIQKGATTVMPKQIKMPEGYEFYGNYKMDQPFELTMTFVVKKI | -1.17
